Test results reported in the supplement of paper PMC10567573.

B1: C10orf62 (parent)
chain: TSECPSDKDKSPESHKAKNESWIK
B2: DVL3 (parent)
chain: SDVVDWLYHNVEGFTDRREARKYA

Variants of: B1
Test: protein stability index of a GFP-peptide fusion (GPS, HEK-293T) (PSI 1-6); higher = more stable
Conditions: c terminus: a fixed tail appended
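Also: lentivirally expressed fusions sorted by FACS into six bins by GFP to DsRed ratio, PSI derived from sequencing read proportions per bin multiplied by bin number.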

Protein stability index of substitutions, site by site:
S2: E 3.98; H 3.47; N 3.74; Q 3.85; K 3.13; M 3.17; G 3.26; I 3.25; L 3.24; T 3.03; C 3.96; D 3.7
T1: Y 3.14; V 2.3; H 3.57; D 3.6; C 2.88; M 3.23; Q 3.27; E 3.09; K 3.31; I 3.04; A 2.87; W 2.28
S21: Q 4.62; Y 4.3; K 4.84; R 4.9; G 4.34; V 4.47; F 5.12; W 4.49; P 3.56; M 4.36
C4: G 3.94; D 3.17; E 3.55; R 3.15; P 3.39; N 3.4; W 2.58; A 3.53; K 3.51; F 3.33; L 3.74; T 3.28
S6: A 4.02; L 3.82; F 3.34; Q 3.75; R 2.75; T 2.92; V 3.27; M 2.94; P 3.37; D 3.51; C 3.17; W 2.71; H 3.56
N19: R 2.84; H 2.42; A 2.83; G 3.92; S 3.97; Y 3.11; P 3.19; M 3.64; Q 3.13; T 2.94; W 3.46
A17: V 3.37; M 2.93; N 3.56; G 3.27; C 3.6; Q 3.64; D 3.88; R 2.6; L 3.64; P 3.07; T 3.14; K 2.93; F 3.42; W 3.5; Y 3.5
E3: M 2.88; T 3.27; A 2.94; Q 2.94; L 3.5; W 2.63; P 4.09; V 2.87; N 3.36
S11: P 3.52; K 3.81; Q 1.92; R 2.92; G 3; M 3.26; V 2.96; F 2.98; A 3.41; T 3.85; W 3.26; Y 2.5
D9: H 3.18; Y 2.64; N 2.94; M 3.28; F 2.16; A 2.68; C 2.46; G 3.42
I23: E 3.96; N 5.17; H 5.18; A 3.68; R 5.25; F 5.32; Y 5.21; M 4.7; T 3.33; V 1.74; S 3.79; Q 2.89; P 5.81; K 4.59; L 4.46
K16: N 3.67; H 3.8; C 3.75; A 4.49; R 3.02; F 3.85; V 3.95; I 3.92; Q 3.29; L 3.37
K18: R 3.51; M 3.77; F 4.09; T 4.02; G 3.9; Y 4.32; W 3.26; E 3.83; D 3.84; I 3.01; H 4.03
P12: E 3.15; Q 3.79; H 3.44; L 2.77; G 3.48; Y 2.74; A 2.87; S 2.54; T 3.54; V 2.4
D7: Y 2.85; Q 3.2; E 2.57; C 3.2; T 3.14; N 3.11; F 2.84; M 2.82; K 3.55; W 2.58; P 3.6
W22: I 5.72; K 5.46; N 5.73; R 5.84; V 5.79; S 5.82; H 5.83; C 5.18; Q 5.8; D 5.78; E 5.67
P5: D 3.84; M 3.08; Y 3.59; E 3.84; G 3.41; W 3.04; H 3.75; F 3.28; V 4.14; I 3.86
S14: Q 4.13; A 3.7; W 4; H 3.71; Y 3; F 3.89; E 4.58; I 3.66; L 3.48; C 3.52; M 3.34; G 3.5
H15: L 3.48; G 3.69; E 3.84; R 3.31; P 3.92; M 2.83; C 3.2; Q 3.37; D 3.92; F 3
K24: G 3.77; C 3.2; S 3.48; R 3.92; A 2.9; M 2.76; H 3.56; Q 2.27; T 3.18; N 3.17; D 2.99; W 3.43; F 3.37; E 2.15; Y 3.16
K10: H 3.53; W 2.28; N 3.73; L 4.2; Q 3.46; V 2.75; F 3.72; I 3.25
E13: H 3.02; S 3.2; Q 3.34; W 2.17; R 2.82; I 2.44; D 2.98; N 3.43; G 2.89; F 2.94; Y 2.98; T 2.65
E20: S 4.29; D 4.02; P 4.83; G 4.3; C 4.47; H 4.51; M 3.05; R 4.09; W 4.72; V 3.77; I 4.38
K8: W 2.99; V 3.62; T 3.45; Y 3.26; G 4.03; S 3.84; I 3.48; F 3.68

Variants of: B2
Test: as above
Conditions: c terminus: a fixed tail appended

Protein stability index of substitutions, site by site:
R21: P 2.66; W 1.67; V 2.78; L 3.1; Y 2.34; H 3.02; S 2.84; T 3.88; Q 3.35; I 2.33; M 2.35; N 3.21; K 3.24
Y23: S 4.11; H 3.73; E 3.97; W 2.75; A 4.21; N 4.05; D 3.95; K 3.83; T 3.55; F 3.17; G 4.05; V 3.6; I 2.82; R 4.18; P 3.97; C 3.69; L 3.15
K22: W 2.06; G 2.68; Y 1.96; M 2.06; Q 2.81; F 1.83; D 2.89; V 2.36; N 3.45; S 3.31; I 2.85; C 2.13; P 3.31; T 2.95; H 3; E 3.24; R 2.29; L 2.19; A 2.73
A24: N 3.62; Q 3.71; L 2.66; H 3.34; K 3.12; Y 2.99; P 3.42; E 2.62; T 2.79; W 1.09; C 3.45; D 4.05; R 3.11; M 2.68; F 2.82; I 1.95; V 2.74
